Tests used:
purified protein [1] = substrate: Nc1ncnc2c1ncn2[C@H]1C[C@H](O)[C@@H](COP(=O)(O)OP(=O)(O)OP(=O)(O)O)O1; test: purified protein; format: biochemical, Homo sapiens; details: undamaged 26-mer template, misincorporation opposite G, 6.4 nM enzyme, 50 nM template-primer, 25 mM Tris-HCl pH 7.5, 5 mM MgCl2, 5 mM DTT, 37 °C
purified protein [2] = substrate: Nc1ncnc2c1ncn2[C@H]1C[C@H](O)[C@@H](COP(=O)(O)OP(=O)(O)OP(=O)(O)O)O1; test: purified protein; format: biochemical, Saccharomyces cerevisiae; details: undamaged 26-mer template, misincorporation opposite G, 6.4 nM enzyme, 50 nM template-primer, 25 mM Tris-HCl pH 7.5, 5 mM MgCl2, 5 mM DTT, 37 °C

Protein	Km (purified protein [1])	kcat (purified protein [1])	kcat/Km (purified protein [1])	Km (purified protein [2])	kcat (purified protein [2])	kcat/Km (purified protein [2])
human DNA polymerase η (hPol η) (Homo sapiens) (protein, recombinant, purchased from Enzymax LLC (Lexington, KY)) MATGQDRVVALVDMDCFFVQVEQRQNPHLRNKPCAVVQYKSWKGGGIIAVSYEARAFGVTRSMWADDAKKLCPDLLLAQVRESRGKANLTKYREASVEVMEIMSRFAVIERASIDEAYVDLTSAVQERLQKLQGQPISADLLPSTYIEGLPQGPTTAEETVQKEGMRKQGLFQWLDSLQIDNLTSPDLQLTVGAVIVEEMRAAIERETGFQCSAGISHNKVLAKLACGLNKPNRQTLVSHGSVPQLFSQMPIRKIRSLGGKLGASVIEILGIEYMGELTQFTESQLQSHFGEKNGSWLYAMCRGIEHDPVKPRQLPKTIGCSKNFPGKTALATREQVQWWLLQLAQELEERLTKDRNDNDRVATQLVVSIRVQGDKRLSSLRRCCALTRYDAHKMSHDAFTVIKNCNTSGIQTEWSPPLTMLFLCATKFSASAPSSSTDITSFLSSDPSSLPKVPVTSSEAKTQGSGPAVTATKKATTSLESFFQKAAERQKVKEASLSSLTAPTQAPMSNSPSKPSLPFQTSQSTGTEPFFKQKSLLLKQKQLNNSSVSSPQQNPWSNCKALPNSLPTEYPGCVPVCEGVSKLEESSKATPAEMDLAHNSQSMHASSASKSVLEVTQKATPNPSLLAAEDQVPCEKCGSLVPVWDMPEHMDYHFALELQKSFLQPHSSNPQVVSAVSHQGKRNPKSPLACTNKRPRPEGMQTLESFFKPLTH	6.5 ± 0.03 µM	0.104 ± 0.00017 s⁻¹	16000 M⁻¹ s⁻¹	–	–	–
yeast DNA polymerase η (yPol η) (Saccharomyces cerevisiae S288C) (protein, recombinant, purchased from Enzymax LLC (Lexington, KY)) MSKFTWKELIQLGSPSKAYESSLACIAHIDMNAFFAQVEQMRCGLSKEDPVVCVQWNSIIAVSYAARKYGISRMDTIQEALKKCSNLIPIHTAVFKKGEDFWQYHDGCGSWVQDPAKQISVEDHKVSLEPYRRESRKALKIFKSACDLVERASIDEVFLDLGRICFNMLMFDNEYELTGDLKLKDALSNIREAFIGGNYDINSHLPLIPEKIKSLKFEGDVFNPEGRDLITDWDDVILALGSQVCKGIRDSIKDILGYTTSCGLSSTKNVCKLASNYKKPDAQTIVKNDCLLDFLDCGKFEITSFWTLGGVLGKELIDVLDLPHENSIKHIRETWPDNAGQLKEFLDAKVKQSDYDRSTSNIDPLKTADLAEKLFKLSRGRYGLPLSSRPVVKSMMSNKNLRGKSCNSIVDCISWLEVFCAELTSRIQDLEQEYNKIVIPRTVSISLKTKSYEVYRKSGPVAYKGINFQSHELLKVGIKFVTDLDIKGKNKSYYPLTKLSMTITNFDIIDLQKTVVDMFGNQVHTFKSSAGKEDEEKTTSSKADEKTPKLECCKYQVTFTDQKALQEHADYHLALKLSEGLNGAEESSKNLSFGEKRLLFSRKRPNSQHTATPQKKQVTSSKNILSFFTRKK	–	–	–	9.5 ± 0.002 µM	0.0883 ± 0.0005 s⁻¹	9330 M⁻¹ s⁻¹
